Measurements: the nanobody polyreactivity screen of Harvey et al. (2022)

Test: yeast display, Sf9 membrane polyspecificity reagent, FACS + sequencing; frameworks hold sequencing errors
How it was run: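 Nanobodies from a synthetic yeast display library (Saccharomyces cerevisiae BJ5465), induced 36–48 hours with galactose, were stained 1 hour at 4 °C with 10% biotinylated, detergent-solubilized Sf9 membrane reagent, enriched on streptavidin microbeads, then FACS-sorted. Anti-HA (expression) and streptavidin (reagent binding) fluorescence set low and high (top ~1%) gates. Polyreactivity labels come from the gate of origin. Genes were colony-PCR amplified, MiSeq 2 × 250 sequenced and filtered by CDR length.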

Sequence | polyreactivity (PSR sort gate)
QVQLVESGGGLVQAGGSLRLSCAASGYIFIRNAMGWYRQAPGKERELVAAISWTGGSTYYADSVKGRFTISRDNAKNTVYLQMNSLKPEDTAVYYCNKYYRAWLLWDYGYWGQGTQVTVSS | high polyreactivity
QVQLVESGGGLVQAGGSLRLSCAASGYIFIWYDMGGYRQAPGKERELVAAISGSGGSTYYADSVKGRFTISRDNAKNTVYLQMNSLKPEDTAVYYCAAVPAHFYGYDYWGQGTQVTVSS | low polyreactivity
QVQLVESGGGLVQAGGSLRLSCAASGYIFKYNAMGWYRQAPGKERELVATIRGGGSTNYADSVKGRFTISRDNAKNTVYLQMNSLKPEDTAVYYCAAVQRYEYGYWGQGTQVTVSS | high polyreactivity
QVQLVESGGGLVQAGGSLRLSCAASGYIFLFYGMGWYRPAPGKERELVAAITYGGGSTYYADSVKGRFTISRDNAKNTVYLQMNSLKPEDTAVYYCNAPSRLSTIFYSGYDYWGQGTQVTVSS | low polyreactivity
QVQLVESGGGLVQAGGSLRLSCAASGYIFLNYAMGWYRQAPGKEREFVATITSSGGTTYYADSVKGRFTISRDNAKNTVYLQMNSLKPEDTAVYYCNADAGWYDWVYYVGRDYWGQGTQVTVSS | low polyreactivity
QVQLVESGGGLVQAGGSLRLSCAASGYIFLRNAMAWYTKAPGKERELVAAIRRTGGSTYYADSVKGRFTISRDNAKNTVYLQMNSLKPEDTAVYYCAKRSYTGYEYWGQGTQVTVSS | low polyreactivity
QVQLVESGGGLVQAGGSLRLSCAASGYIFLRNAMGWSRQAPGKERELVAAIRRTGGSTYYADSVKGRFTISRDNAKNTVYLQMNSLKPEVTAVYYCAKRSYTGYEYWGQGTQVTVSS | low polyreactivity
QVQLVESGGGLVQAGGSLRLSCAASGYIFLSYAMGWYIQAPGKERELVAAISRGGRTYYADSVKGRFTISRDNAKNTVYLQMNSLKPEDTAVYYCNAVSTPGKYGYWGQGTQVTVSS | high polyreactivity
QVQLVESGGGLVQAGGSLRLSCAASGYIFNKYVMGWYRQAPGKERELVAAISASGGSTYYADSVKGRFTISRDNAKNTVYLQMNSLKPEDTAVYYCAATLYRRMDYWGQGTQVTVSS | high polyreactivity
QVQLVESGGGLVQAGGSLRLSCAASGYIFNKYVMGWYRQAPGKERELVAAISASGGSTYYADSVKGRFTISRDNAKNTVYLQMNSLKPEDTSVYYCAATLYRRMDYWGQGTQVTVSS | high polyreactivity
QVQLVESGGGLVQAGGSLRLSCAASGYIFPFNAMGWYRQAPGKERELVAAITNGGRTYYADSVKGRFTISRDNAKNTVYLQMNSLKPEDTAVYYCAAGSKSDMDWGQGTQVTVSS | low polyreactivity
QVQLVESGGGLVQAGGSLRLSCAASGYIFQDYAMGWYRQAPAKERELVARISAGGGRTYYADSVKGRFTISRENAMNTVYLQMNSLKPEDTAVYYCAAPLSYSWVYIVRYGYDYWGQGTQVTVSS | low polyreactivity
QVQLVESGGGLVQAGGSLRLSCAASGYIFQPYAMGWYRQAPGKERELVAAISWRGGSTYYADSVKGRFTISRDNAKNTVYLQMNSLKPEDTAVYYCAVDAWDTTHVYEQGAERDSWGQGTQVTVSS | low polyreactivity
QVQLVESGGGLVQAGGSLRLSCAASGYIFRVYAMGWYRQAPGKERELVAAISGSGGRTYYADSVKGRFTISRDNAKNTVSLQMNSLKPEDTAVYYCAAYRVSDYDYWGQGTQVTVSS | high polyreactivity
QVQLVESGGGLVQAGGSLRLSCAASGYIFRYYAMGWYRQAPGKERELVAAISRSGGNTYYADSVKGRFTISRDNAMITVYLQMNSLKPEDTAVYYCAVVLSTYSYADYDYWGQGTQVTVSS | high polyreactivity
QVQLVESGGGLVQAGGSLRLSCAASGYIFSINAMGWYRQAPGKERELVAAITSSGGSTYYADSVKGRFTISRDNAKNTVYLQMNSLKPEDTAVYYCNAYVRRTRDYDYWGQGTQVTVSS | high polyreactivity
QVQLVESGGGLVQAGGSLRLSCAASGYIFSSYAMGWYRQAPGKERELVAAISWTGGTYYADSVKGRFTISRDNAKNTVYLQMNSLKPEDTAVYYCAVRYKRKGSGYRTNAYDYWGQGTQVTVSS | high polyreactivity
QVQLVESGGGLVQAGGSLRLSCAASGYIFSYNAMGWYRQAPGKERELVAAITASGGGTYYADSVKGRFTISRDNAKNTVYLQMNSLKPDDTAVYYCAATPYSTQGLRPKFDYWGQGTQVTVSS | low polyreactivity
QVQLVESGGGLVQAGGSLRLSCAASGYIFSYYAMGWYRQAPGKEREFVAAIRWRGGSTYYADSVKGRFTISRDNAKKTVYLQMNSLKPEDTAVYYCAAGPGTSYYWGQGTQVTVSS | high polyreactivity
QVQLVESGGGLVQAGGSLRLSCAASGYIFSYYAMGWYRQAPGKEREFVAAIRWRGGSTYYADSVKGRFTISRDNAKNTVYLQMNSLKPEDTAVYYCAAGPGTSYYWGQGTQVTVSS | high polyreactivity
QVQLVESGGGLVQAGGSLRLSCAASGYIFTDYDMGWYRPAPGKEREFVAAISSSGGSTYYADSVKGRFTISRDNAKNTVYLQMNRLKPEDTAVYYCAARRRYGRYRGAYDYWGQGTRVTVSS | high polyreactivity
QVQLVESGGGLVQAGGSLRLSCAASGYIFTIYAMGWYRQAPGKERELVAAITWSGATTYYADSVKGRFTISRDNAKNTVYLQMNSLKPEDTAVYYCNADYWHYYEDYDSWGQGTQVTVSS | low polyreactivity

Sequence | polyreactivity (PSR sort gate)
QVQLVESGGGLVQAGGSLRLSCAASGYIFTVYAMGWYRQAPGKERELVAAINWSDGSTYYADSVKGRFTISRDNAKNTVYLQMNSLKPEDTAVYYCAAESRYQRYDYWGQGTQVTVSS | high polyreactivity
QVQLVESGGGLVQAGGSLRLSCAASGYIFTYNAMGWYRQAPGKERELVAAISYSGGSTYYADSVKGRFTISRDNAKNTVYLQINSLNPEDTAVYYCNAVWRHTYGNYFWGQGTQVTVSS | high polyreactivity
QVQLVESGGGLVQAGGSLRLSCAASGYIFTYTMGWYRQAPGKERELVAAISKSGGSTYYADSVKGRFTLSRDNAKNTVYLQMNSLKPEDTAVYYCARRGRYYLYTDDYDYWGQGTQVTVSS | high polyreactivity
QVQLVESGGGLVQAGGSLRLSCAASGYIFVYNAMGWYRQAPGKERELVAAISTTGGRTYYADSVKGRFTISRDNAKNTVYLLMNSLKPEDTAVYYCAARAYYAWTLFGYWGQGTQVTVSS | high polyreactivity
QVQLVESGGGLVQAGGSLRLSCAASGYIFWKNAMGWYRQAPGKERELVAGITIRGGRTYYADSVKGRFTISRDNAKNTVYLQMNSLKPEDTAVYYCNALYDYYDPYGSWGQGTQVTVSS | high polyreactivity
QVQLVESGGGLVQAGGSLRLSCAASGYIFWLNALGWYRQAPGKERELVAAIRSSGGSTYYADSVKGRFTISRDNAKNTVYLQMNSLKPEDTAVYDCARRGYNWYTHFGYDYWGQGTQVTVSS | low polyreactivity
QVQLVESGGGLVQAGGSLRLSCAASGYIFWYNAMGWYRQAPGKERELVAAISRSGGRTYYADSVKGRCTISRDNAKNTVYLQMNSLKPDDTAVYYCAAGSSHHYVYEGGYWGQGTQVTVSS | low polyreactivity
QVQLVESGGGLVQAGGSLRLSCAASGYIFYGYAMGWYRQAHGKERELVAAITVRGGSTYYADSVKGRFTISRDNAKNTVYLQMNSLNPEDTAVYYWAAAPQFTVGVGYWGQGTQVTVSS | low polyreactivity
QVQLVESGGGLVQAGGSLRLSCAASGYIFYGYDMGWYRQAQGKERDLVAGITYSGGGGTHYADSVKGRFTISRDNAKNTVYLQMNSLKPEDTAVYYCAKADPQLNRNYYSYGMDYWGQGTQVTVSS | low polyreactivity
QVQLVESGGGLVQAGGSLRLSCAASGYIFYYNGMGWYRQAPGKERELVAVISRRGGSTYYADSVKGRFTISRDNAKNTVYLQMNSLKPEDTAVYYCNARARSSRTYKYDYWGQGTQVTVSS | high polyreactivity
QVQLVESGGGLVQAGGSLRLSCAASGYIFYYYAMGWYRQAPGKERELVAAISSGGSTSYADSVKGRFTISRDNAKNTVYLQMNSLKPEDTAVYYCAAYKPWYVGLYPWYDYWGQGTQVTVSS | low polyreactivity
QVQLVESGGGLVQAGGSLRLSCAASGYIIDVNTMGWYRPAPGKDRELVAAITSGGTTYYADSVKGRFTISRDNAKNTVYLQMNSLKPEDTAAYYCAALWSRRRSRPSFDYWGQGTQVTVSS | high polyreactivity
QVQLVESGGGLVQAGGSLRLSCAASGYIIGRYVMGWYRQAPGKERELVAAITASGGSTYYADSVKGRFTISRDNAKNTVYLQMNSLKPEDTAVYYCAAPTYGRFLRNDYWGQGTQVTVSS | high polyreactivity
QVQLVESGGGLVQAGGSLRLSCAASGYIIWSYAMGWYRQAPGKERELVAGISYSGGSTYYADSVKGRFTISRDNAKNTVYLQMNSLKPEDTAVFYCAALRRGYVPFGYWGQGTQVTVSS | high polyreactivity
QVQLVESGGGLVQAGGSLRLSCAASGYILGRYAMGWSRQAPGNERELVAAITSGASTYYADSVKGRFTISRDNAKNTVYLQMNSLKPEDTAVYYCARVNGAKQGGEYDYWGQGTQVTVSS | high polyreactivity
QVQLVESGGGLVQAGGSLRLSCAASGYILRSNAMGWYRQAPGKEREFVAAITYSGGSTYYADSVKGRFTISRDNAKNTVYFQRNSLKPEATAVYSCSKTTRYRRGYGYWGQGTEVTVSS | low polyreactivity
QVQLVESGGGLVQAGGSLRLSCAASGYILTHYAMGWYRQAPGKERELVAAITRVGNTNYADSVKGRFTISRDNAKNTVYLQMNSLKPEDTAVYYCAADGVASLFGDPPTEFDYWGQGTQVTVSS | low polyreactivity
QVQLVESGGGLVQAGGSLRLSCAASGYILYGNTMGWYRQAPGKERELVAAISGGGSTNYADSVKGRFTISRDNAKNTVYLQMNSLKPEETAVYYCAVDVKIGTDFIGVVIPGDYWGQGTQVTVSS | low polyreactivity
QVQLVESGGGLVQAGGSLRLSCAASGYIYRYNAMGWYRQAPGKEREFVASISQRGGSTYYADSVKGRFTISRDNAKNTVYLQMNSLKPEDTAVYYCAARLGYYSYEYNYWGQGTQVTVSS | high polyreactivity
QVQLVESGGGLVQAGGSLRLSCAASGYLFSYYAMGWSRQAPGKERELVATIDWGGGSTYYADSVKGRFTISRDNAKNTVYLQMNSLKPEDTGVYYCSKDYYITKYGYRYDSWGQGTQVTVSS | low polyreactivity
QVQLVESGGGLVQAGGSLRLSCAASGYNFENNVMGWYRQAPGKERELVAVISWNGGRTYYADSVKGRFTISRDNAKNTVYLQMNSLKPEDTAVYYCNDQGYFWSESIVYDYWGQGTQVTVSS | low polyreactivity
